# Assay results published in US20230031262A1, “TREATMENT OF MILD TRAUMATIC BRAIN INJURY” (OXEIA BIOPHARMACEUTICALS, INC., priority 2019, published 2023).
# Where no end group is shown, it is not given here. The star is where a group is joined. Octanoyl = CCCCCCCC(=O)*
# Tests used:
# [1] = stability of reconstituted OXE-103 drug product on storage; format: physicochemical; conditions: reconstituted OXE-103 for SC administration 14 mg in 5 mL multi-use vials
# Experimental: OXE-103 drug product, placebo, and diluent are stored refrigerated between 2° C. to 8° C. (35.6° F. to 46.4° F.). Reconstituted OXE-103 for SC administration 14 mg (in 5 mL multi-use vials) is stable for up to 14 days at 10° C. or for up to 3 days when stored at 25° C./1000 Lux. The reconstituted drug product (and placebo) is stored refrigerated at 2° C. to 8° C. (35.6° F. to 46.4° F.).
# [2] = in vivo; cited from earlier work
# [3] = in vivo; cited from earlier work; remark: listed apart in the source
# [4] = in vivo; cited from earlier work; remark: listed apart in the source
substance,measurement,setting,value
"ghrelin (GSS(Octanoyl)FLSPEHQRVQQRKESKKPPAKLQPR; UniProt Q9UBU3 24-51, looked up) [OXE-103]","stable for up to (reconstituted, storage time)",[1]; at 10° C.,up to 14 days
same,"stable for up to (reconstituted, storage time)",[1]; stored at 25° C./1000 Lux,up to 3 days
same,serum half-life,[2],about 30 minutes
same,safety,[3],quite safe
same,adverse effects of long term use,[4],"increased appetite, weight gain, and adiposity"
